Measurements reported in publication PMC4521160, “Glass is a Viable Substrate for Precision Force Microscopy of Membrane Proteins” (Scientific Reports, 2015).
Blank lines part the entries; values can stand above or below the binder they belong to.

Tests used:
[1] = molecular target: T1, bacteriorhodopsin from Halobacterium salinarum (Halobacterium salinarum), P02945; test: atomic force microscopy (AFM) imaging; purple membrane on KOH-treated glass (20 mM Tris pH ~8.5, 200 mM KCl, 20 mM MgCl2) and on mica (10 mM Tris pH ~7.6, 150 mM KCl); tapping mode, ~30 °C; correlation averaging; details: remark: other sources report otherwise
T1 chain: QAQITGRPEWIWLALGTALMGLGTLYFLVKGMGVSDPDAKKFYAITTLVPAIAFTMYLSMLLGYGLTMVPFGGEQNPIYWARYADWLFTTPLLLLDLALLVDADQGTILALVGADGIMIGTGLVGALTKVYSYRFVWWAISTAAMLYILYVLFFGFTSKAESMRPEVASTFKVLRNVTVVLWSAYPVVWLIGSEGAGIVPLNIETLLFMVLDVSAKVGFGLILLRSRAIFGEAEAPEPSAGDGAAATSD

ATPase SecA = molecular target: T2, ATPase SecA (E. coli, UniProt P10408 1-901); test: atomic force microscopy (AFM) imaging; proteoliposomes of coassembled SecYEG and SecA deposited on KOH-treated glass (height histograms also on mica); tapping mode, ~30 °C, 10 mM HEPES pH 8.0, 200 mM KAc, 5 mM MgAc2; single translocons tracked for >1800 s; details: both partners purified
T2 construct: SecA, ATPase of the general secretory system of E. coli; SecA was added for coassembly 'at 5 μM dimer'; Zinc is kept in SecA by the purification; also called peripheral membrane protein SecA; source: purified from the supernatant of lysed cells (QAE column)
T2 sequence (P10408 whole entry): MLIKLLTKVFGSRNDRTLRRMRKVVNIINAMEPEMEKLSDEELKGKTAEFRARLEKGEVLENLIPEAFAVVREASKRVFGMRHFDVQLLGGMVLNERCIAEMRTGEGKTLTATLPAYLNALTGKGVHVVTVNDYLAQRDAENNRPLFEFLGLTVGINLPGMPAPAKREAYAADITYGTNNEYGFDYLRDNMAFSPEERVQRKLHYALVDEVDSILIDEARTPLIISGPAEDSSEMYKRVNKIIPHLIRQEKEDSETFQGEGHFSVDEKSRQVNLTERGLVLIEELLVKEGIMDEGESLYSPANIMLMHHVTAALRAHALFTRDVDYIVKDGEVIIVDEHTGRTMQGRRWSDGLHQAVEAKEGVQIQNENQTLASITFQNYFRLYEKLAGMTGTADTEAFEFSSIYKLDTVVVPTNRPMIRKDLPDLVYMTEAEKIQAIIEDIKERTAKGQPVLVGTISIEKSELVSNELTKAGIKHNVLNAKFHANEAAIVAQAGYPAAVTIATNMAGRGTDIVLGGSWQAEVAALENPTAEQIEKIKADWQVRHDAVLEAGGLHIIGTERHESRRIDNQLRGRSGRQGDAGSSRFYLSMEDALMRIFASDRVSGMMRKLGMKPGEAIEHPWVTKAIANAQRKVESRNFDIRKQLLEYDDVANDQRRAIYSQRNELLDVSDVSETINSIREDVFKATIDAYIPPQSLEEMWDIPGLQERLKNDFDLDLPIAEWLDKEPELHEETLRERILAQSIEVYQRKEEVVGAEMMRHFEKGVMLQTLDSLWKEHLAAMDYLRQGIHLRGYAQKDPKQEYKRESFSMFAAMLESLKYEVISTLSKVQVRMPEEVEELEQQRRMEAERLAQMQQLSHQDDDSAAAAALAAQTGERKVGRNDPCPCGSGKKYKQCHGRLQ

- stoichiometry N [1]: 3
B1: bacteriorhodopsin from Halobacterium salinarum, P02945 14-262 (natural protein)
chain: T1 chain
modifications: here or on the partner: retinal chromophore; retinal chromophore

- binding result (ATPase SecA): binds
B2: SecYEG translocon from Escherichia coli (complex, E. coli)
chain 1: MAKQPGLDFQSAKGGLGELKRRLLFVIGALIVFRIGSFIPIPGIDAAVLAKLLEQQRGTIIEMFNMFSGGALSRASIFALGIMPYISASIIIQLLTVVHPTLAEIKKEGESGRRKISQYTRYGTLVLAIFQSIGIATGLPNMPGMQGLVINPGFAFYFTAVVSLVTGTMFLMWLGEQITERGIGNGISIIIFAGIVAGLPPAIAHTIEQARQGDLHFLVLLLVAVLVFAVTFFVVFVERGQRRIVVNYAKRQQGRRVYAAQSTHLPLKVNMAGVIPAIFASSIILFPATIASWFGGGTGWNWLTTISLYLQPGQPLYVLLYASAIIFFSFFYTALVFNPRETADNLKKSGAFVPGIRPGEQTAKYIDKVMTRLTLVGALYITFISLIPEFMRDAMKVPFYFGGTSLLIVVVVIMDFMAQVQTLMMSSQYESALKKANLKGYGR
chain 2: MSANTEAQGSGRGLEAMKWVVVVALLLVAIVGNYLYRDIMLPLRALAVVILIAAAGGVALLTTKGKATVAFAREARTEVRKVIWPTRQETLHTTLIVAAVTAVMSLILWGLDGILVRLVSFITGLRF
chain 3: MYEALLVVFLIVAIGLVGLIMLQQGKGADMGASFGAGASATLFGSSGSGNFMTRMTALLATLFFIISLVLGNINSNKTNKGSEWENLSAPAKTEQTQPAAPAKPTSDIPN
notes: SecY of the E. coli translocon SecYEG, with C329S and C385S; SecE of the E. coli translocon SecYEG; SecG of the E. coli translocon SecYEG; In the assay the complex stood in a lipid bilayer supported by glass (or mica); also called bacterial translocon; copies: + +
